This is an account of results in patent publication US8209131B2, “Therapeutic heparins and their binding to interleukins 4 and 5 and PECAM-1” (Curtin University of Technology, priority 2004, dated 2012).

For orientation: Kd means the concentration at which binding is half-saturated.

The test system of test [1] is TF1.8 cells. Nature of the test: TF1.8 bioassay of IL-4 mutants (support of proliferation). The test is classed as cell-based, human. The settings on record: for Conc needed for 50% growth, average: IL-4 wt and mutants, TF1.8 cells; for proliferative activity of IL-4 mutants: compared with WT. The procedure:
TF-1.8 cells have been transfected with the firefly luciferase gene contained in the expression vector, pPGK-puromycin-luciferase (Coombe et al., 1998, Supra). The positive transfectants are cloned to produce a line with good luciferase expression. The proliferation assays are carried out in 96-well microplates suitable for such assays Falcon). The wells are flat bottomed, with white sides and a clear bottom. Cells are washed to remove any cytokine in the growth medium and then resuspended in RPMI/5% w/v FCS. The cells are counted with a Coulter Multisizer (Coulter Electronics, England) and routinely 2.5×10^4 cells are added to microplate wells that contain either no IL-4 (negative control) or various dilutions of IL-4. When the effect of HLGAGs, chondroitin sulfate C, or the heparin fractions of a particular length, or heparin fragments of a particular length and structure is to be measured, the wells also contain various concentrations of these molecules.
The cells proliferate for 48 hours at 37° C. in a humidified atmosphere, after which the luciferase activity is measured by the addition of 50 μl of luciferase substrate buffer (50 mm Tris-HCl, pH 7.8, 15 mM MgSO4, 33.3 mM DTT, 0.1 mM EDTA, 0.5 mM Na-luciferin, 0.5 mM ATP, 0.25 mM lithium Co A and 0.5% v/v Triton X-100). Immediately after the addition of the luciferase buffer the plate is assayed for luciferase activity. Light emissions are detected on a Victor 1420 Multilabel counter (Wallac, Turku, Finland).
IL-4 mutants were compared with WT for their ability to support the proliferation of TF1.8 cells. Titration curves were performed for each of the mutants and the concentration needed to support 50% of cell growth was determined.

Test [2] is described as follows: BIAcore binding of proteins to heparin immobilised on a biosensor chip. The settings on record: for ka / kd / Kd: IL-4 WT and mutants binding to heparin; for ka: in M-1s-1 (unit assumed); for kd: in s-1 (unit assumed); for Kd: read-out: KD. The text has this:
This technology uses the optical phenomenon of surface plasmon resonance to monitor physical interactions between molecules. Passing the protein solution over a sensor surface to which the ligand is coupled monitors the real-time binding of proteins to an immobilized ligand. Detection is achieved by measuring refractive index changes very close to the sensor surface. When the refractive index is altered, the angle at which plasmon resonance occurs changes and this change directly correlates with the amount of protein interacting with the surface. A BIAcore 2000 is conveniently used. It is very sensitive and its microfluidics ensures that only small amounts of material are required.
The HLGAGs are immobilized on the biosensor chip. Intact HLGAGs are biotinylated via amino groups, or reducing termini modified with ammonia by reductive amination, using sulfo-NHS-biotin. Biotinylated HLGAGs are immobilized on streptavidin-coupled sensor chips. Solutions containing proteins of interest are injected over the sensor chip surface, and the binding is measured in real time (Fernig, In: Proteoglycan protocols, Ed. R.V. Iozzo, Humana Press, Totowa, N.J., USA, 2001). […] In all cases binding is specific, as there is little or no interaction with sensor chips lacking heparin with any of the targeted proteins, and binding is inhibited by exogenous heparin. Initial analyzes indicate that the binding of rhIL-5 to heparin has affinity constants of the order from 50-5×10^−9. Because unsubstituted amines are variably present in heparan sulfates from different tissues, an alternative method of biotin labeling is recommended for the heparan sulfate chip. In this case, heparan sulfate is labeled via oxidized cis-diol residues using biotinyl-LC-hydrazine. […]
Binding experiments with these proteins has indicated to which PECAM-1 domains heparin binds. Two binding assays were used: the assay where PECAM-1 is reacted with a BIAcore biosensor chip to which heparin has been immobilised and the second assay is the binding of PECAM-1 to heparan sulfate on the cell surface.
Site directed mutagenesis was performed on IL-4. Basic residues within the proposed heparin binding site were changed to alanine and the proteins expressed using the baculovirus expression system. The one exception was R88 which was changed to valine. Insect cell expressed proteins were purified on an anti-IL-4 affinity column and checked for purity by SDS-PAGE and silver staining. Mutant IL-4 proteins were examined for their ability to bind heparin immobilised on a biosensor chip and binding assessed using a BIAcore 2000.
A general note: In SPR one partner is held on a chip, and binding of the other changes the refractive index at the surface.

B1: R85A: IL-4 mutant, baculovirus expressed (protein)
chain: HKCDITLQEIIKTLNSLTEQKTLCTELTVTDIFAASKNTTEKETFCRAATVLRQFYSHHEKDTRCLGATAQQFHRHKQLIRFLKALDRNLWGLAGLNSCPVKEANQSTLENFLERLKTIMREKYSKCSS
Regarding B1, the “Conc needed for 50% growth, average” value in test [1] amounted to 0.71 ng/mL. In test [2], the “heparin binding of IL-4 mutant relative to wild type” value is given as “stronger binding than the wild type”, the ka turned out to be 1.04E+05, the kd stood at 2.42E−03 and the dissociation constant Kd was 23.4 nM.

B2: K77A/R85A: IL-4 double mutant (protein, UniProt P05112 25-153, looked up, variant K77A R85A)
Interleukin-4: HKCDITLQEIIKTLNSLTEQKTLCTELTVTDIFAASKNTTEKETFCRAATVLRQFYSHHEKDTRCLGATAQQFHRHAQLIRFLKALDRNLWGLAGLNSCPVKEANQSTLENFLERLKTIMREKYSKCSS
In the case of B2, in test [2], the ka came out at 1.51E+04, the kd was found to be 1.78E−03 and the Kd was determined as 117 nM.

B3: K77A/K12A: IL-4 double mutant (protein, UniProt P05112 25-153, looked up, variant K77A K12A)
Interleukin-4: HKCDITLQEIIATLNSLTEQKTLCTELTVTDIFAASKNTTEKETFCRAATVLRQFYSHHEKDTRCLGATAQQFHRHAQLIRFLKRLDRNLWGLAGLNSCPVKEANQSTLENFLERLKTIMREKYSKCSS
As to B3, in test [2], the ka was determined as 1.65E+04, the kd came out at 3.44E−03 and the Kd was found to be 209 nM.

B4: K84A: IL-4 mutant, baculovirus expressed (protein)
chain: HKCDITLQEIIKTLNSLTEQKTLCTELTVTDIFAASKNTTEKETFCRAATVLRQFYSHHEKDTRCLGATAQQFHRHKQLIRFLARLDRNLWGLAGLNSCPVKEANQSTLENFLERLKTIMREKYSKCSS
B4: in test [1], the “Conc needed for 50% growth, average” value came to 2.95 ng/mL and the “proliferative activity of IL-4 mutants” value is reported as “slightly decreased proliferative activity”. Further, in test [2], the ka turned out to be 3.06E+04, the kd came out at 2.57E−03 and the Kd amounted to 83.9 nM.

B5: R81A: IL-4 mutant, baculovirus expressed (protein)
chain: HKCDITLQEIIKTLNSLTEQKTLCTELTVTDIFAASKNTTEKETFCRAATVLRQFYSHHEKDTRCLGATAQQFHRHKQLIAFLKRLDRNLWGLAGLNSCPVKEANQSTLENFLERLKTIMREKYSKCSS
For the molecule B5, in test [1], the “Conc needed for 50% growth, average” value worked out at 4.85 ng/mL and the “proliferative activity of IL-4 mutants” value is on record as “slightly decreased proliferative activity”. In test [2], the ka stood at 2.43E+04, the kd amounted to 2.37E−03 and the Kd is 97.8 nM.

B6: E60A: IL-4 mutant, baculovirus expressed (protein)
chain: HKCDITLQEIIKTLNSLTEQKTLCTELTVTDIFAASKNTTEKETFCRAATVLRQFYSHHAKDTRCLGATAQQFHRHKQLIRFLKRLDRNLWGLAGLNSCPVKEANQSTLENFLERLKTIMREKYSKCSS
In the case of B6, in test [2], the ka stood at 8.44E+04, the kd is listed as 2.76E−03 and the Kd was found to be 32.7 nM.

B7: E9A: IL-4 mutant, baculovirus expressed (protein)
chain: HKCDITLQAIIKTLNSLTEQKTLCTELTVTDIFAASKNTTEKETFCRAATVLRQFYSHHEKDTRCLGATAQQFHRHKQLIRFLKRLDRNLWGLAGLNSCPVKEANQSTLENFLERLKTIMREKYSKCSS
For the molecule B7, in test [1], the “Conc needed for 50% growth, average” value is 76.1 ng/mL and the “proliferative activity of IL-4 mutants” value is reported as “markedly decreased proliferative activity”. Further, in test [2], the ka is 1.72E+05, the kd stood at 8.45E−03 and the dissociation constant (Kd) is 49.3 nM.

B8: K77A/R88V: IL-4 double mutant (protein, UniProt P05112 25-153, looked up, variant K77A R88V)
Interleukin-4: HKCDITLQEIIKTLNSLTEQKTLCTELTVTDIFAASKNTTEKETFCRAATVLRQFYSHHEKDTRCLGATAQQFHRHAQLIRFLKRLDVNLWGLAGLNSCPVKEANQSTLENFLERLKTIMREKYSKCSS
On to B8, for which, in test [2], the ka came to 1.36E+04, the kd is reported as 1.94E−03 and the Kd came out at 142 nM.

B9: D87A: IL-4 mutant, baculovirus expressed (protein, UniProt P05112 25-153, looked up, variant D87A)
Interleukin-4: HKCDITLQEIIKTLNSLTEQKTLCTELTVTDIFAASKNTTEKETFCRAATVLRQFYSHHEKDTRCLGATAQQFHRHKQLIRFLKRLARNLWGLAGLNSCPVKEANQSTLENFLERLKTIMREKYSKCSS
For the molecule B9, in test [2], the ka was 4.42E+04, the kd is 1.59E−03 and the Kd was determined as 36 nM.

B10: H74A: IL-4 mutant, baculovirus expressed (protein, UniProt P05112 25-153, looked up, variant H74A)
Interleukin-4: HKCDITLQEIIKTLNSLTEQKTLCTELTVTDIFAASKNTTEKETFCRAATVLRQFYSHHEKDTRCLGATAQQFARHKQLIRFLKRLDRNLWGLAGLNSCPVKEANQSTLENFLERLKTIMREKYSKCSS
For the molecule B10, in test [2], the ka is 2.05E+04, the kd amounted to 6.37E−04 and the Kd was 31.1 nM.

B11: R53A: IL-4 mutant, baculovirus expressed (protein)
chain: HKCDITLQEIIKTLNSLTEQKTLCTELTVTDIFAASKNTTEKETFCRAATVLAQFYSHHEKDTRCLGATAQQFHRHKQLIRFLKRLDRNLWGLAGLNSCPVKEANQSTLENFLERLKTIMREKYSKCSS
For B11, in test [1], the “Conc needed for 50% growth, average” value worked out at 9.39 ng/mL and the “proliferative activity of IL-4 mutants” value is recorded as “slightly decreased proliferative activity”. Also, in test [2], the ka is 5.83E+04, the kd was 5.40E−03 and the dissociation constant (Kd) amounted to 92.5 nM.

B12: K42A: IL-4 mutant, baculovirus expressed (protein)
chain: HKCDITLQEIIKTLNSLTEQKTLCTELTVTDIFAASKNTTEAETFCRAATVLRQFYSHHEKDTRCLGATAQQFHRHKQLIRFLKRLDRNLWGLAGLNSCPVKEANQSTLENFLERLKTIMREKYSKCSS
For the molecule B12, the “Conc needed for 50% growth, average” value in test [1] was found to be 0.67 ng/mL. In addition, in test [2], the ka worked out at 4.63E+04, the kd is given as 2.50E−03 and the Kd is 53.9 nM.

B13: βc: IL-3, IL-5 and GM-CSF common receptor β extracellular domain fused to flag tag (protein, UniProt P32927 17-443, looked up)
extracellular domain: WERSLAGAEETIPLQTLRCYNDYTSHITCRWADTQDAQRLVNVTLIRRVNEDLLEPVSCDLSDDMPWSACPHPRCVPRRCVIPCQSFVVTDVDYFSFQPDRPLGTRLTVTLTQHVQPPEPRDLQISTDQDHFLLTWSVALGSPQSHWLSPGDLEFEVVYKRLQDSWEDAAILLSNTSQATLGPEHLMPSSTYVARVRTRLAPGSRLSGRPSKWSPEVCWDSQPGDEAQPQNLECFFDGAAVLSCSWEVRKEVASSVSFGLFYKPSPDAGEEECSPVLREGLGSLHTRHHCQIPVPDPATHGQYIVSVQPRRAEKHIKSSVNIQMAPPSLNVTKDGDSYSLRWETMKMRYEHIDHTFEIQYRKDTATWKDSKTETLQNAHSMALPALEPSTRYWARVRVRTSRTGYNGIWSEWSEARSWDTESVLPMW
modifications: extracellular domain Flag tag
notes: IL-3, IL-5 and GM-CSF common receptor β extracellular domain fused to flag tag
Take B13: the “binding to immobilized heparin” value in test [2] (recombinant proteins, FIG. 2) is listed as “binds to heparin”.
